Experimental data taken from the nanobody polyreactivity screen of Harvey et al. (2022).

Experiment: yeast display, Sf9 membrane polyspecificity reagent, FACS + sequencing; frameworks hold sequencing errors
How it was run: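 In a synthetic yeast display library (Saccharomyces cerevisiae BJ5465), nanobody expression was induced with galactose for 36–48 hours. FACS gates were set low and high (top ~1%) using anti-HA fluorescence for expression and streptavidin fluorescence for binding of the Sf9 membrane reagent. Each polyreactivity label is drawn from the gate of origin.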

Row | Sequence | polyreactivity (PSR sort gate)
1 | QVQLVESGGGLVQAGGSLRLSCAASGNIFIYNAMGWYRQAPGKERELVASITYSGDSTYYADSVKGRFTISRDNAKNTVYLQMNSLKPEDTAVYFCAAQGYGWWYDYWGQGSQVTVSS | low polyreactivity
2 | QVQLVESGGGLVQAGGSLRLSCAASGNIFKGYAMGWYRQAPGKERELVAAISKSGGSTYYADSVKGRFTISRDNAKNTVYLQMNSLKPDDTAVYYCNTYTYAGYNYWGQGTQVTVSS | high polyreactivity
3 | QVQLVESGGGLVQAGGSLRLSCAASGNIFKVYVMGGSRQAPGKERELVAAISGSGGSTYYADSVKGRFTISRDNAKTTVYLQMNSLKPEDTSVYYCNKVFKVTAARSFGYWGQGTQVTVSS | low polyreactivity
4 | QVQLVESGGGLVQAGGSLRLSCAASGNIFLFYVMGWYRQAPGKERELVAAITLSGTNTYYADSVKGRFTISRDNAKNTVYLQMNSLKPEDTAVYYCNADWWSDGYDYWGQGTQVTVSS | low polyreactivity
5 | QVQLVESGGGLVQAGGSLRLSCAASGNIFLSYAIGCYRQAPGKEREFVPAIRWSGASTYYADSVKGRFTISRDNAKNTVELQMNSLKPEDTAVYYCGRRALCPRRGIRYDYWGQGSQVTVSS | high polyreactivity
6 | QVQLVESGGGLVQAGGSLRLSCAASGNIFLYYDMGWYRQAPGKERELVADIDSSGASTYYADSVKGRFTISRDNAKNTVYLQMNSLKPEDTAVYYCAAELHWWYAGYEYGYWGQGTQVTVSS | low polyreactivity
7 | QVQLVESGGGLVQAGGSLRLSCAASGNIFPAYVMGWYRQAPGKERELVAAITDSDGSTFYADSVKGRFTISRDNAKNTVYLQMNSLKPEDTAVYYCAAYSYRQGWGFGYWGQGTQVTVSS | low polyreactivity
8 | QVQLVESGGGLVQAGGSLRLSCAASGNIFPRNAMGWYRQAPGKERELVAAISASGDNTYYADSVKGRFTISRDNAKNTVYLQMNSLKPEDTAVYYCAAGTFYESIQPYESVAYDYWGQGTQVTVSS | low polyreactivity
9 | QVQLVESGGGLVQAGGSLRLSCAASGNIFPYYAMGWYRQAPGKERELVAAISGSGDRTYYADSVKGRFTIARDNAKNTVYLQMNSLKPEDTAVYYCAASRRYYGWYEYWGQGSQVTVSS | high polyreactivity
10 | QVQLVESGGGLVQAGGSLRLSCAASGNIFPYYAMGWYRQAPGKERELVASISRSGGSTYYADSVKGRFTISRDNAKNTVYLQMNSLKPEDTAVYYCAKRTPYYGFGFFHPARGYGYWGQGTQVTVSS | low polyreactivity
11 | QVQLVESGGGLVQAGGSLRLSCAASGNIFQKYAMGWYRQAPGKERELVAAIRRGDRTYADSVKGRFTISRDNAKNTVYLQMNSLKPEDTAVYYCNTAGASYFTAGYGYWGQGTQVTVSS | low polyreactivity
12 | QVQLVESGGGLVQAGGSLRLSCAASGNIFSAYAMGWYRQAPGKERELVAAITNGGRTNYADSVKGRFSISRDNAKNTVYLQMNSLKPEDTAVYYCAVASTILGKRTYYYWGQGTQVTVSS | low polyreactivity
13 | QVQLVESGGGLVQAGGSLRLSCAASGNIFSDNAMGWYIQAPGKERELVAAITSGGSTNYADSVKGRFTISLDNAKNTVYLQMISLKPEDNAVYYCAADISYRHFLFDYWGQGTQVTVSS | low polyreactivity
14 | QVQLVESGGGLVQAGGSLRLSCAASGNIFSLNGMGWYRQAPGKEREFVAAITWSVGSTSSADSVKGRFTISRDNAKNTVYLQMNSLKPEDTAVYYGAATVSDLYKHEYYYWGQGTQVTVSS | low polyreactivity
15 | QVQLVESGGGLVQAGGSLRLSCAASGNIFSPYAMGWYRPAPGKERELVAAISSGDSTYYADSVKGRFTISRDNAKNTVYLQMNSLKPEDTAVYYCAADANYSNYQYYEFDYWGQGTQVTVSS | low polyreactivity
16 | QVQLVESGGGLVQAGGSLRLSCAASGNIFSRYAMGWYREPRGKERELVAAISSSGGTTYYADSVKGRFTISRDNAKNTVYLQMNSLKPEDTAVYYCNARRRQIYSEFGYWGQGTQVTVSS | high polyreactivity
17 | QVQLVESGGGLVQAGGSLRLSCAASGNIFSTYAMGWYRQAPGKERELVASISENGGSTYYADSVKGRFTISRDNAKNTVYLQMNSLKPEDTAVYYCNADAYVYFDDGDYWGQGTQVTVSS | low polyreactivity
